The test deals with T1, Env of SHIV-SF162P3, on virions (SHIV-SF162P3, env from HIV-1 SF162 …, UniProt P19550, strain).
T1 construct: HIV-1 SF162-derived envelope glycoprotein (gp120/gp41) of SHIV-SF162P3, as it stands on virus particles; source: virus stock
Briefly: infectious virus capture assay (plate based); antibody mixed with viral stock, immune complexes held on plates coated with anti-human IgG, captured infectious virus read with indicator cells (RLU). To be noted: one partner purified.

B1: 7B2 IgG1_AAA (antibody, V domains shown)
VH: QVQLVQSGGGVFKPGGSLRLSCEASGFTFTEYYMTWVRQAPGKGLEWLAYISKNGEYSKYSPSSNGRFTISRDNAKNSVFLQLDRLSADDTAVYYCARADGLTYFSELLQYIFDLWGQGARVTVSS
VL: DIVLAQSPDSLAVSPGERATIHCKSSQTLLYSSNNRHSIAWYQQRPGQPPKLLLYWASMRLSGVPDRFSGSGSGTDFTLTINNLQAEDVAIYYCHQYSSHPPTFGHGTRVELR
notes: variable region as in the heavy chain of m1 (PDB 4YDV, heavy chain); as the light chain of m1 (PDB 4YDV, light chain); IgG1 with the Fc changes S298A, E333A, K334A; also called 7B2_AAA; source: CHO cells (Catalent, Somerset, NJ), recombinant; copies: 2 + 2
For B1, the binding result is “binds”.
